In the assay the target is T1, AP4E1 (human, UniProt Q9UPM8 1-1137, limits assumed).
T1 sequence (looked up): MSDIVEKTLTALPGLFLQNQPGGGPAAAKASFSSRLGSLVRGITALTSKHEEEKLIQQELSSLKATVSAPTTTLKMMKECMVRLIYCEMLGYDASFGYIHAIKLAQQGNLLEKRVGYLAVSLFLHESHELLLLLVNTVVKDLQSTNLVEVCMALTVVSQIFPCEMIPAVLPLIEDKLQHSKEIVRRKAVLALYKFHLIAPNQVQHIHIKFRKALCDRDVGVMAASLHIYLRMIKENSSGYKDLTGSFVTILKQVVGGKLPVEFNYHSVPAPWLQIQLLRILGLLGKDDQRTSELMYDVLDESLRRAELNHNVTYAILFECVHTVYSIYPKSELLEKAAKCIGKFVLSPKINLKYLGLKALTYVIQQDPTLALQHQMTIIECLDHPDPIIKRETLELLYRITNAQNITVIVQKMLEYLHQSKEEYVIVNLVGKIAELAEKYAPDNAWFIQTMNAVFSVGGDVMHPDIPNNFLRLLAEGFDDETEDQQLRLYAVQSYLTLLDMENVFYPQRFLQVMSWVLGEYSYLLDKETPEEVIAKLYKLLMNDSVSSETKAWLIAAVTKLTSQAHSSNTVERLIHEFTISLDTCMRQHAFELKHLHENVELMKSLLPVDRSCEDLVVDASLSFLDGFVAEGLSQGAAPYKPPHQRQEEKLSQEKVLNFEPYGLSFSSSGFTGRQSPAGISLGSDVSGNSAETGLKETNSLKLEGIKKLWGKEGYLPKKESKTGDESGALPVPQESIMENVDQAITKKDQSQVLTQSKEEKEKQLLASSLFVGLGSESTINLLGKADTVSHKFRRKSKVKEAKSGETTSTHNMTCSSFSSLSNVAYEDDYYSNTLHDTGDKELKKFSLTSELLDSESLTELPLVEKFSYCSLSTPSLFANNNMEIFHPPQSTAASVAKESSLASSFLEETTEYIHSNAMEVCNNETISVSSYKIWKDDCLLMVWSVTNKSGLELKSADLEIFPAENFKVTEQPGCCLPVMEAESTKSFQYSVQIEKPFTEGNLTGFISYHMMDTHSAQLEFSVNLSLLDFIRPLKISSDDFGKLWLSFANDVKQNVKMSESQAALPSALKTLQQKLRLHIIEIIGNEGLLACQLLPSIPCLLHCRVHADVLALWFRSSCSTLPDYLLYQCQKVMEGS
Briefly: IP/MS, LZTR1 wild type-FLAG, U87. The essentials: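 Extracted peptides in 3% acetonitrile/0.1% formic acid ran on a 50 cm C18 column into an Orbitrap Fusion, with MaxQuant identification and spectral counting.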

B1: LZTR1-FLAG (other, human, UniProt Q8N653 1-840, looked up)
chain: MAGPGSTGGQIGAAALAGGARSKVAPSVDFDHSCSDSVEYLTLNFGPFETVHRWRRLPPCDEFVGARRSKHTVVAYKDAIYVFGGDNGKTMLNDLLRFDVKDCSWCRAFTTGTPPAPRYHHSAVVYGSSMFVFGGYTGDIYSNSNLKNKNDLFEYKFATGQWTEWKIEGRLPVARSAHGATVYSDKLWIFAGYDGNARLNDMWTIGLQDRELTCWEEVAQSGEIPPSCCNFPVAVCRDKMFVFSGQSGAKITNNLFQFEFKDKTWTRIPTEHLLRGSPPPPQRRYGHTMVAFDRHLYVFGGAADNTLPNELHCYDVDFQTWEVVQPSSDSEVGGAEVPERACASEEVPTLTYEERVGFKKSRDVFGLDFGTTSAKQPTQPASELPSGRLFHAAAVISDAMYIFGGTVDNNIRSGEMYRFQFSCYPKCTLHEDYGRLWESRQFCDVEFVLGEKEECVQGHVAIVTARSRWLRRKITQARERLAQKLEQEAAPVPREAPGVAAGGARPPLLHVAIREAEARPFEVLMQFLYTDKIKYPRKGHVEDVLLIMDVYKLALSFQLCRLEQLCRQYIEASVDLQNVLVVCESAARLQLSQLKEHCLNFVVKESHFNQVIMMKEFERLSSPLIVEIVRRKQQPPPRTPLDQPVDIGTSLIQDMKAYLEGAGAEFCDITLLLDGHPRPAHKAILAARSSYFEAMFRSFMPEDGQVNISIGEMVPSRQAFESMLRYIYYGEVNMPPEDSLYLFAAPYYYGFYNNRLQAYCKQNLEMNVTVQNVLQILEAADKTQALDMKRHCLHIIVHQFTKVSKLPTLRSLSQQLLLDIIDSLASHISDKQCAELGADI
notes: Expressed in HEK 293T, HeLa or U87 cells; used as cell lysate; also called LZTR1 wild type-FLAG; LZTR1 WT; not shown: FLAG tag at the C-terminus
In the case of B1, the binding result was “binds”.

The values above are taken from US20250262210A1 (TRUSTEES OF COLUMBIA UNIVERSITY IN THE CITY OF NEW YORK, published 2025).
